Here are results for four substances from patent US20130102527A1.

Experiment [1] deals with caspase-like site (β1 subunit) of 26S proteasomes purified from rabbit muscle (rabbit). The experiment can be described thus: cell-based or functional assay.
In experiment [2] the target is proteasome β5 subunit (chymotrypsin-like site) in human cells and cell extracts (human) (UniProt P28074). The experiment can be described thus: cell-based or functional assay.
Experiment [3] addresses proteasome β1 subunit (caspase-like site) in human cells and cell extracts (human) (UniProt P28072). The experiment can be described thus: cell-based or functional assay.
Experiment [4] deals with chymotrypsin-like site (β5 subunit) of 26S proteasomes purified from rabbit muscle (rabbit) (UniProt G1T4Q9). The experiment in a line: cell-based or functional assay.
Sequence of chymotrypsin-like site (β5 subunit) of 26S proteasomes purified from rabbit muscle (rabbit) (G1T4Q9 entry or part of it): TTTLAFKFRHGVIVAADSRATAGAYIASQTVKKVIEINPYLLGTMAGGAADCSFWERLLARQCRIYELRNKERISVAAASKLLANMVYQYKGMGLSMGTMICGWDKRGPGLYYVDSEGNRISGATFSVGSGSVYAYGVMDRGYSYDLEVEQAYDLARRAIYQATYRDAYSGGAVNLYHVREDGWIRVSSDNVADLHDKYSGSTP
Experiment [5] has as its target proteasome β2 subunit (trypsin-like site) in human cells and cell extracts (human) (UniProt Q99436). The experiment can be described thus: cell-based or functional assay.
The target of experiment [6] is trypsin-like site (β2 subunit) of 26S proteasomes purified from rabbit muscle (rabbit) (UniProt G1SWK8). The experiment can be described thus: cell-based or functional assay.
Sequence of trypsin-like site (β2 subunit) of 26S proteasomes purified from rabbit muscle (rabbit) (G1SWK8 entry or part of it): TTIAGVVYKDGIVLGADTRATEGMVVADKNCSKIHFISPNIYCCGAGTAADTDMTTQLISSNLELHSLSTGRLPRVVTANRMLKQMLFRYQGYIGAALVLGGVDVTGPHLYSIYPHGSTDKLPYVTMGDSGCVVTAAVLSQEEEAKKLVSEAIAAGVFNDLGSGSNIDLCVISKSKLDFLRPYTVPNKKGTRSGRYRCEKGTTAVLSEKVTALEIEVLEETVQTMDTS
Experiment [7] has as its target proteasome β2 subunit (trypsin-like site) in human cells and cell extracts (human) (UniProt Q99436). The experiment in a line: competition with activity-based probe in living HEK-293 cells, 4 h; Tr-L site.
The target in experiment [8] is proteasome β5 subunit (chymotrypsin-like site) in human cells and cell extracts (human) (UniProt P28074). The experiment can be described thus: competition with activity-based probe in living HEK-293 cells, 4 h; Chym-L site.

Sequence of proteasome β5 subunit (chymotrypsin-like site) in human cells and cell extracts (human) (P28074 60-263): as the sequence (G1T4Q9 entry or part of it) above, with D197E counted along it
Sequence of proteasome β2 subunit (trypsin-like site) in human cells and cell extracts (human) (Q99436 44-277): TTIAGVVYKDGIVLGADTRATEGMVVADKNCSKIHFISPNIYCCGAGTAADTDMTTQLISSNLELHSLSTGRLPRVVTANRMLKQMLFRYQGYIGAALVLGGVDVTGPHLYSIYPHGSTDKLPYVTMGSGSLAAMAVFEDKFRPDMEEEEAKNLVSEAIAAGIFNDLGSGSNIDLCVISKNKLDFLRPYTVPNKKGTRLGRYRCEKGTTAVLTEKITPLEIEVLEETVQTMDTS
Sequence of proteasome β1 subunit (caspase-like site) in human cells and cell extracts (human) (P28072 35-239): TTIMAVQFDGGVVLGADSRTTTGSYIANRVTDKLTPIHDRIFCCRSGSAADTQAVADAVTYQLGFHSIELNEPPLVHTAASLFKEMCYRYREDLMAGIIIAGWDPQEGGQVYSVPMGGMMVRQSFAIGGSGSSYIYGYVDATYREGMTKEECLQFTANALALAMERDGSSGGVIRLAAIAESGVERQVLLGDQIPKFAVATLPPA

As for “N3-Phe-Ala(4-pyridine)-Leu-Phe(4-CH2NH2-TFA)-VS (50) (peptide)”, in experiment [1], the IC50 (µM) for sites: Casp-L worked out at 30 µM.
In experiment [2], “N3-Phe-Phe(4-NH2.TFA)-Leu-Phe(4-CH2NH2.TFA)-VS (51) (peptide)” gave an IC50 (µM) for sites: Chym-L; NCI-H929 cells, 6 h, PROTEASOMEGLO of 3.6 µM and an IC50 (µM) for sites: Chym-L; RPMI-8226 cells, 6 h, PROTEASOMEGLO of 7.2 µM. In addition, in experiment [3], the IC50 (µM) for sites: Casp-L; NCI-H929 cells, 6 h, PROTEASOMEGLO came out at 22 µM and the IC50 (µM) for sites: Casp-L; RPMI-8226 cells, 6 h, PROTEASOMEGLO is > 30 µM. Also, the IC50 (µM) for sites: Chym-L in experiment [4] was 3.4 µM. In experiment [5], this substance returned an IC50 (µM) for sites: Tr-L; NCI-H929 cells, 6 h, PROTEASOMEGLO of 0.11 µM and an IC50 (µM) for sites: Tr-L; RPMI-8226 cells, 6 h, PROTEASOMEGLO of 0.58 µM. The substance further had an IC50 (µM) for sites: Casp-L in experiment [1] of 30 µM. Also, the IC50 (µM) for sites: Tr-L in experiment [6] amounted to 0.03 µM. The same substance came in with a 50% inhibitory concentration (IC50) in experiment [7] of 10 µM. The IC50 in experiment [8] was > 50 µM.
As for NC-022 (HMB-Val-Ser-Arg-ek) (peptide), in experiment [5], the IC50 (µM) for sites: Tr-L; NCI-H929 cells, 6 h, PROTEASOMEGLO worked out at 0.9 µM; the IC50 (µM) for sites: Tr-L; RPMI-8226 cells, 6 h, PROTEASOMEGLO is 24 µM; the inhibition of the trypsin-like sites at 3 µM NC-022 within 4-6 hours, NCI-H929 cells is 90%; the inhibition of trypsin-like activity 5 hours after NC-022 addition, NCI-H929 and KMS-12-BM cells was > 90%. Also, in experiment [5], the inhibition of trypsin-like activity after a 6-hour incubation, MM cell lines is > 90%.
Turning to carfilzomib (peptide), in experiment [2], the Inhibition of active sites (% control): Chymotrypsin-like sites, 1 h; KMS-12-BM, 11 nM carfilzomib came out at 75%; the Inhibition of active sites (% control): Chymotrypsin-like sites, 1 h; KMS-12-BM, 33 nM carfilzomib worked out at 90%; the Inhibition of active sites (% control): Chymotrypsin-like sites, 1 h; KMS-12-BM, 100 nM carfilzomib is 95%; the Inhibition of active sites (% control): Chymotrypsin-like sites, 1 h; KMS-12-BM, 300 nM carfilzomib turned out to be 97%. In experiment [2], this substance yielded an Inhibition of active sites (% control): Chymotrypsin-like sites, 1 h; KMS-12-BM, 900 nM carfilzomib of 98%; an Inhibition of active sites (% control): Chymotrypsin-like sites, 1 h; NCI-H929, 3.7 nM carfilzomib of 14%; an Inhibition of active sites (% control): Chymotrypsin-like sites, 1 h; NCI-H929, 11 nM carfilzomib of 39%; an Inhibition of active sites (% control): Chymotrypsin-like sites, 1 h; NCI-H929, 33 nM carfilzomib of 75%. In experiment [2], this substance had an Inhibition of active sites (% control): Chymotrypsin-like sites, 6 h -NC-022; KMS-12-BM, 11 nM carfilzomib of 67%; an Inhibition of active sites (% control): Chymotrypsin-like sites, 6 h -NC-022; KMS-12-BM, 33 nM carfilzomib of 97%; an Inhibition of active sites (% control): Chymotrypsin-like sites, 6 h -NC-022; KMS-12-BM, 100 nM carfilzomib of 97%; an Inhibition of active sites (% control): Chymotrypsin-like sites, 6 h -NC-022; KMS-12-BM, 300 nM carfilzomib of 97%. In experiment [2], this substance gave an Inhibition of active sites (% control): Chymotrypsin-like sites, 6 h -NC-022; KMS-12-BM, 900 nM carfilzomib of 97%; an Inhibition of active sites (% control): Chymotrypsin-like sites, 6 h -NC-022; NCI-H929, 3.7 nM carfilzomib of 65.5%; an Inhibition of active sites (% control): Chymotrypsin-like sites, 6 h -NC-022; NCI-H929, 11 nM carfilzomib of 89%; an Inhibition of active sites (% control): Chymotrypsin-like sites, 6 h -NC-022; NCI-H929, 33 nM carfilzomib of 95%. Besides, in experiment [5], the Inhibition of active sites (% control): Trypsin-like sites, 1 h; KMS-12-BM, 11 nM carfilzomib is -3%; the Inhibition of active sites (% control): Trypsin-like sites, 1 h; KMS-12-BM, 33 nM carfilzomib was determined as 0%; the Inhibition of active sites (% control): Trypsin-like sites, 1 h; KMS-12-BM, 100 nM carfilzomib turned out to be 18%; the Inhibition of active sites (% control): Trypsin-like sites, 1 h; KMS-12-BM, 300 nM carfilzomib was determined as 49%. For the same substance, in experiment [5], the Inhibition of active sites (% control): Trypsin-like sites, 1 h; KMS-12-BM, 900 nM carfilzomib was 75%; the Inhibition of active sites (% control): Trypsin-like sites, 1 h; NCI-H929, 3.7 nM carfilzomib was -7%; the Inhibition of active sites (% control): Trypsin-like sites, 1 h; NCI-H929, 11 nM carfilzomib came to 0%; the Inhibition of active sites (% control): Trypsin-like sites, 1 h; NCI-H929, 33 nM carfilzomib is 17%. In addition, in experiment [5], the Inhibition of active sites (% control): Trypsin-like sites, 6 h -NC-022; KMS-12-BM, 11 nM carfilzomib worked out at 5%; the Inhibition of active sites (% control): Trypsin-like sites, 6 h -NC-022; KMS-12-BM, 33 nM carfilzomib worked out at 45%; the Inhibition of active sites (% control): Trypsin-like sites, 6 h -NC-022; KMS-12-BM, 100 nM carfilzomib was 62%; the Inhibition of active sites (% control): Trypsin-like sites, 6 h -NC-022; KMS-12-BM, 300 nM carfilzomib stood at 69%. In experiment [5], this substance yielded an Inhibition of active sites (% control): Trypsin-like sites, 6 h -NC-022; KMS-12-BM, 900 nM carfilzomib of 72%; an Inhibition of active sites (% control): Trypsin-like sites, 6 h -NC-022; NCI-H929, 3.7 nM carfilzomib of 3%; an Inhibition of active sites (% control): Trypsin-like sites, 6 h -NC-022; NCI-H929, 11 nM carfilzomib of 39%; an Inhibition of active sites (% control): Trypsin-like sites, 6 h -NC-022; NCI-H929, 33 nM carfilzomib of 46%.
